Here are results for two molecules from paper PMC9478954, “Density Control over MBD2 Receptor-Coated Surfaces Provides Superselective Binding of Hypermethylated DNA”.

Series [1] addresses T1, His10-MBD2 (UniProt Q9UBB5 151-411). Briefly: QCM; 500 nM DNA; threshold MBD2 density ~88 ng/cm2; up to 61% of bound DNA irreversible; BB: 50 mM Tris, 350 mM NaCl, 0.1% Triton X-100 (pH and temperature of BB not stated); 500 nM DNA, 30 min, QCM 5th overtone; His10MBD2 loaded at 1 uM in IB (50 mM Tris pH 7.2, 300 mM NaCl, 0.1% beta-mercaptoethanol). Conditions: protein: recombinant; tags: N-terminal His10; blunt.

For series [2], the target named is T1, His10-MBD2. Briefly: QCM; 500 nM DNA; same trend as Mal5C*pG and Mal3C*pG; plateau between them; BB: 50 mM Tris, 350 mM NaCl, 0.1% Triton X-100 (pH and temperature of BB not stated); 500 nM DNA, 30 min, QCM 5th overtone; His10MBD2 loaded at 1 uM in IB (50 mM Tris pH 7.2, 300 mM NaCl, 0.1% beta-mercaptoethanol). The following applies: protein: recombinant; tags: N-terminal His10; blunt.

T1 sequence (Q9UBB5 151-411): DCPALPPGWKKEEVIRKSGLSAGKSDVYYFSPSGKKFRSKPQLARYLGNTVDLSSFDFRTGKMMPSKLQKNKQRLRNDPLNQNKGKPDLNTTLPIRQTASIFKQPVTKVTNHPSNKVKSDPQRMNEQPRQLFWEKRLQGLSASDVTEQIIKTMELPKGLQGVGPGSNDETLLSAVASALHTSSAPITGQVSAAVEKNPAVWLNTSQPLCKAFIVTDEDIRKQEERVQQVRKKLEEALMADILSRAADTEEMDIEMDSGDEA

B1: Mal5C*pG (dsDNA)
DNA 1: CAGGCAGATGCGCAGCACCAAGCAGAGAGGCCCGGTGCAGGATCCCAGGCCCGAACCAGGCCCGGCTCAGTGGAGCCGGAAGGGGCAGGC
DNA 2: GCCTGCCCCTTCCGGCTCCACTGAGCCGGGCCTGGTTCGGGCCTGGGATCCTGCACCGGGCCTCTCTGCTTGGTGCTGCGCATCTGCCTG
modifications: 5-methyl-C at all CpGs, both strands (M.SssI); top strand C11, C33, C52, C63, C77
As to B1, the binding result in the series with His10-MBD2 [1] is listed as “binds”.

B2: Mal4C*pG (dsDNA)
DNA 1: CAGGCAGATGCGCAGCACCAAGCAGAGAGGCCGGGTGCAGGATCCCAGGCCCCGACCAGGCCAGGCTCAGTGGCGCTGGAAGGGGCAGGC
DNA 2: GCCTGCCCCTTCCAGCGCCACTGAGCCTGGCCTGGTCGGGGCCTGGGATCCTGCACCCGGCCTCTCTGCTTGGTGCTGCGCATCTGCCTG
modifications: 5-methyl-C at all CpGs, both strands (M.SssI); top strand C11, C32, C53, C74
For the molecule B2, in the series with His10-MBD2 [2], the binding result is reported as “binds”.
